B1: pEXS-wx: maize GBSS (waxy), N-terminus ASAGMNVVFV, expressed from this plasmid in E. coli BL21 (DE3) (protein, UniProt P04713 73-605, looked up)
Granule-bound starch synthase …: ASAGMNVVFVGAEMAPWSKTGGLGDVLGGLPPAMAANGHRVMVVSPRYDQYKDAWDTSVVSEIKMGDGYETVRFFHCYKRGVDRVFVDHPLFLERVWGKTEEKIYGPVAGTDYRDNQLRFSLLCQAALEAPRILSLNNNPYFSGPYGEDVVFVCNDWHTGPLSCYLKSNYQSHGIYRDAKTAFCIHNISYQGRFAFSDYPELNLPERFKSSFDFIDGYEKPVEGRKINWMKAGILEADRVLTVSPYYAEELISGIARGCELDNIMRLTGITGIVNGMDVSEWDPSRDKYIAVKYDVSTAVEAKALNKEALQAEVGLPVDRNIPLVAFIGRLEEQKGPDVMAAAIPQLMEMVEDVQIVLLGTGKKKFERMLMSAEEKFPGKVRAVVKFNAALAHHIMAGADVLAVTSRFEPCGLIQLQGMRYGTPCACASTGGLVDTIIEGKTGFHMGRLSVDCNVVEPADVKKVATTLQRAIKVVGTPAYEEMVRNCMIQDLSWKGPAKNWENVLLSLGVAGGEPGVEGEEIAPLAKENVAAP
modifications: expressed in E. coli
B2: maize starch synthase SSIIa-1, putative full length SSIIa (669 amino acids), N-terminus AEAEAGGK (SEQ ID NO:68) (Zea mays) (protein)
chain: AEAEAGGKDAPPERSGDAARLPRARRNAVSKRRDPLQPVGRYGSATGNTARTGAASCQNAALADVEIVEIKSIVAAPPTSIVKFPGRGLQDDPSLWDIAPETVLPAPKPLHESPAVDGDSNGIAPPTVEPLVQEATWDFKKYIGFDEPDEAKDDSRVGADDAGSFEHYGTMILGLCGENVMNVIVVAAECSPWCKTGGLGDVVGALPKALARRGHRVMVVVPRYGDYVEAFDMGIRKYYKAAGQDLEVNYFHAFIDGVDFVFIDASFRHRQDDIYGGSRQEIMKRMILFCKVAVEVPWHVPCGGVCYGDGNLVFIAMNWHTALLPVYLKAYYRDHGLMQYTRSVLVIHNIGHQGRGPVHEFPYMDLLNTNLQHFELYDPVGGEHANIFAACVLKMADRVVTVSRGYLWELKTVEGGWGLHDIIRSNDWKINGIRERIDHQEWNPKVDVHLRSDGYTNYSLETLDAGKRQCKAALQRDVGLEVRDDVPLLGFIGRLDGQKGVDIIGDAMPWIAGQDVQLVMLGTGPPDLERMLQHLEREHPNKVRGWVGFSVLMVHRITPGASVLVMPSRFAGGLNQLYAMAYGTVPVVHAVGGLRDTVAPFDPFGDAGLGWTFDRAEANKLIEVLSHCLDTYRNYEESWKSLQARGMSQNLSWDHAAELYEDVLVKYQW

Columns and labels:
[1] = test system: maize starch synthases; assay: Expression of maize starch synthases in Escherichia coli BL21 (DE3): specific activity; format: biochemical; conditions: 25° C., 5 mg/mL glycogen as primer
[2] = substrate: Nc1ncnc2c1ncn2[C@@H]1O[C@H](COP(=O)(O)OP(=O)(O)O[C@H]2O[C@H](CO)[C@@H](O)[C@H](O)[C@H]2O)[C@@H](O)[C@H]1O; assay: ADPGlc kinetics of starch synthase SSIIa-1; format: biochemical, maize; conditions: other: amylopectin as primer, −citrate, 27° C.
Excerpt: FIG. 59. SSIIa-1 and SSIIa-2 construct diagram. Two forms of SSIIa were constructed in the pET expression system. pExs3c encodes SSIIa-1, the putative full length maize SSIIa which has the N-terminal sequence AEAEAGGK (SEQ ID NO:68). […] A depiction of the waxy gene, encoding GBSS which has the N-terminal sequence ASAGMNVV (SEQ ID NO:67), is also included for comparison. The amino acid motif KTGGL (SEQ ID NO:10), the putative binding site for ADPGlc, is indicated by the triangles. The KTGGL (SEQ ID NO:10) motif is located 18 amino acids from the N-terminus in GBSS, while the motif is 194 amino acids from the N-terminus in maize SSIIa.
5 mL of supernatant were used to assay STS and SBE activities as previously described (Preiss) with minor modification. […] […] The unincorporated [^14C]-ADPGlc was separated with Dowex anion exchange column (200-400 mesh, Sigma Chemical Co.). One unit of activity is defined as 1 nmol Glc incorporated into the a-glucan per min at 25° C. SBE activity was determined by phosphorylase stimulation assay. One unit of activity is defined as 1 mmol Glc incorporated into the a-glucan per min at. 30° C. […]

| Molecule | Specific Activities [1] [units/mg Protein] | Km [2] [µM] |
| --- | --- | --- |
| B1 | 0.033 |  |
| B2 |  | 460 ± 60 |

From US7285703B2, “Plant like starches and the method of making them in hosts” (BASF Plant Science GmbH, priority 1998, dated 2007)
